Data as given in patent publication US20240352080A1 (Seagen, published 2024).

Molecular target: T1, CD47 (UniProt Q08722 19-323, limits assumed)
T1 construct: whole, on cells; L540cy and SW780 are the cell lines named
Assay: saturation binding, flow cytometry on CD47-expressing L540cy cells

B1: hB6H12.3 (unmasked parent) (antibody, V domains shown)
VH: EVQLLESGGGLVQPGGSLRLSCAASGFTFSGYGMSWVRQAPGKRLEWVATITSGGTYTYYPDSVKGRFTISRDNSKNTLYLQMNSLRAEDTAIYFCARSLAGNAMDYWGQGTLVTVSS
VL: EIVMTQSPDFQSVTPKEKVTLTCRASQTISDYLHWYQQKPDQSPKLLIKFASQSISGVPSRFSGSGSGSDFTLTINSLEAEDAATYYCQNGHGFPRTFGQGTKLEIKR
With B1 the EC50 was 21 nM.
